Experiment [1] deals with T1, wild-type K-Ras 4B (in RASless MEFs) (Homo sapiens (Human), UniProt P01116-2 1-185).
T1 construct: Expressed by lentiviral transduction in RASless mouse embryonic fibroblasts; stained on live cells by flow cytometry, in lysates by western blot; also called MEF-K-Ras-4B; 4B splice variant of K-Ras
Description: flow cytometry, surface staining of RASless MEFs, 10 µg/ml.

Experiment [2] deals with T2, wild-type K-Ras 4A (in RASless MEFs) (Homo sapiens (Human), UniProt P01116 1-186).
T2 construct: Expressed by lentiviral transduction in RASless mouse embryonic fibroblasts; stained on live cells by flow cytometry, in lysates by western blot; also called MEF-K-Ras-4A
The experiment is described as above.

B1: Human Anti-K-Ras Antibody 1 (antibody, human IgG1, lambda, N297G, V domains shown)
VH: EVQLVQSGGGVVQPGRSLRLSCAASGFTSRHPGMHWVRQAPGKGLEWVAVISHDGSKKYYADSVKGRFTISRDNSKNTLFVQLSSLRPEDTAVYYCATSLYSSMDLWGQGTTVTVSS
VL: QSVVTQPPSVSAAPGQKVTISCSGSNSNIGKNYVSWFQQVPGTAPKLLIFEDNQRPSGIPDRFSASKSGTSASLAISGLQSEDEADYYCAAWDDKFGVHWVFGGGTKLTVLG
notes: also called human K-Ras antibody 1; Human K-RAS Antibody 1
For B1, the binding result in experiment [1] and in experiment [2] was “binds” in each case.

The values are drawn from patent US20260158070A1 (UNIVERSITY OF MARYLAND BALTIMORE, published 2026).
